This note sets out measurements from PMC7985710.

Assay [1] addresses Human HDL, double-radiolabeled. The assay is described as follows: [125I]-HDL cell association on transfected COS-7 cells. The following applies: COS-7 cells transiently expressing WT or mutant SR-BI; n = 3 independent transfections; empty vector bar est. 30 % of WT; parent: est. 100; read off a plot.
Assay [2] has as its target R174C-SR-BI (human variant of scavenger receptor class B type I) (human) (UniProt Q8WTV0). The assay is described as follows: radioligand binding; [^125I]-HDL binding: transfected COS-7 cells incubated with 10 μg/ml double-radiolabeled human HDL for 1.5 h at 4°C.
Assay [3] concerns the target WT scavenger receptor class B type I (human SR-BI) (human) (UniProt Q8WTV0). The description is as above.

Turning to “WT scavenger receptor class B type I (human SR-BI) (from UniProt Q8WTV0-2) R174D; D185R”, the percent of parent in assay [1] is 44 % of WT.

As for “WT scavenger receptor class B type I (human SR-BI) (from UniProt Q8WTV0-2) R174K”, in assay [1], the percent of parent was 72 % of WT.

In assay [2], “Human HDL, double-radiolabeled (complex)” came in with an HDL binding, percent of WT-SR-BI of 31.3%. In addition, the HDL binding (raw value) (ng/mg protein) in assay [3] turned out to be 22.7. On to “WT scavenger receptor class B type I (human SR-BI) (from UniProt Q8WTV0-2) D185R”, for which, in assay [1], the percent of parent is 82 % of WT.
